Literature values, collected in article PMC11720126.
Read-outs that look alike come from different tables or passages of the source.

Assays:
[1] = molecular target: Calmodulin (Homo sapiens) (UniProt P0DP23)
[2] = molecular target: Calmodulin (Homo sapiens) (UniProt P0DP23); remark: listed apart in the source
[3] = molecular target: Calmodulin (Homo sapiens) (UniProt P0DP23); remark: listed apart in the source
[4] = molecular target: Calmodulin (Homo sapiens) (UniProt P0DP23); remark: listed apart in the source

| Kd [1] [µM] | Kd [2] [µM] | Kd [3] [µM] | Kd [4] [µM] | Substance |
| --- | --- | --- | --- | --- |
| 0.8 | 55 |  |  | STIM1 PBD (from UniProt Q13586) |
|  |  | 0.9 | 150 | STIM2 PBD (from UniProt Q9P246) |
